Test results published in patent publication US20240409663A1 (CONCEPT TO MEDICINE BIOTECH, published 2024).
Positions count from the first letter of the chain named. Read-outs that look alike come from different tables or passages of the source. Each block holds one binder with its values, some of them ahead of it.

Tests used:
[1] = biological target: T1, human GPC3 on cells (human, UniProt P51654 25-554); experiment: cell-based or functional assay
[2] = biological target: T1, human GPC3 on cells; experiment: FACS, GPC3-CHOK1 cells
Method: To evaluate the antigen binding property, the affinity maturated antibodies were analyzed for their binding to human GPC3 over-expressed CHOK1 cells by FACS as previously described.

[3] = biological target: T1, human GPC3 on cells; experiment: cell-based or functional assay; remark: listed apart in the source
[4] = biological target: T1, human GPC3 on cells; experiment: FACS, Huh-7 cells
Method: (§1) To evaluate the antigen binding property, the humanized antibodies were analyzed for their binding to human GPC3 over-expressed CHOK1 cells and Huh-7 cells by FACS. Briefly, GPC3-CHOK1 cells and Huh-7 cells were firstly incubated with Fc blocking reagent at 4° C. for 15 mins. Cells were washed by FACS buffer and divided to each well with 4-fold serially diluted humanized antibodies starting at 10 μg/mL at 4° C. for 60 mins. Cells were washed by FACS buffer and fixed with 2% PFA at RT for 15 mins. […] As different plates might affect the EC50 of 52H5D3B8-VH+VL, the 12 humanized antibodies were separated into two plates.

[5] = biological target: T1, human GPC3 on cells; experiment: FACS, GPC3-CHOK1 cells; remark: listed apart in the source
Method: as §1

[6] = biological target: T2, human GPC3-his tag protein (human, UniProt P51654 25-559, limits assumed); experiment: SPR Biacore 8K, mAb captured, affinity ranking
T2 construct: recombinant soluble antigen used as analyte in all Biacore runs; also called recombinant GPC3 protein; rhGPC3-His; not shown: His tag
Method: To evaluate antigen binding activity, the chimeric antibody's affinity was measured by Biacore 8K. Two concentrations with most close affinity to the chimeric antibody's affinity were chosen for the 12 humanized antibodies' affinity detection. Human GPC3-his tag protein was injected over captured antibody for 3 mins at a flow rate of 30 μl/min. The antigen was allowed to dissociate for 720 s.

[7] = biological target: T1, human GPC3 on cells; experiment: FACS, Huh-7 cells; remark: listed apart in the source
Text: (§2) FACS was used to evaluate the binding activity of Hu 52H5D3B8-7 and Hu 52H5D3B8-8 with comparison to benchmark antibodies GC33 and Y035 on human GPC3 expressed on CHOK1 cells, Huh-7 cell and HEPG2 cells. In order to evaluate the properties of CDRs and frameworks of Hu 52H5D3B8-7 Ab, two chimeric antibodies were generated. The antibody termed “Hu 52H5D3B8-7/8 CDRs with Y035 FRs” contains the Hu 52H5D3B8-7 CDRs and the Y035 FRs. The antibody termed “Y035 CDRs with Hu 52H5D3B8-7 FRs” represents the chimeric antibody with the Y035 CDRs engrafted to Hu 52H5D3B8-7 FRs.

[8] = biological target: T1, human GPC3 on cells; experiment: FACS, HEPG2 cells
Text: as §2

[9] = biological target: T1, human GPC3 on cells; experiment: cell-based or functional assay; remark: listed apart in the source
[10] = biological target: T1, human GPC3 on cells; experiment: FACS, GPC3-CHOK1 cells; remark: listed apart in the source
Method: as §1

[11] = biological target: T1, human GPC3 on cells; experiment: FACS, GPC3-CHOK1 cells; remark: listed apart in the source
Text: as §2

[12] = biological target: T1, human GPC3 on cells; experiment: FACS, Huh-7 cells; remark: listed apart in the source
Method: as §1

[13] = biological target: T1, human GPC3 on cells; experiment: FACS, HEPG2 cells
[14] = biological target: T1, human GPC3 on cells; experiment: FACS, GPC3-CHOK1 cells
[15] = biological target: T1, human GPC3 on cells; experiment: FACS, HEPG2 cells; remark: listed apart in the source
[16] = biological target: T1, human GPC3 on cells; experiment: FACS, Huh-7 cells
[17] = biological target: T1, human GPC3 on cells; experiment: cell-based or functional assay; remark: listed apart in the source
[18] = biological target: T1, human GPC3 on cells; experiment: FACS, GPC3-CHOK1 cells; remark: listed apart in the source
[19] = biological target: T1, human GPC3 on cells; experiment: FACS, GPC3-CHOK1 cells; remark: listed apart in the source
Method: Cell-based binding: FACS was used to evaluate the binding activity of chimeric mAbs (18C1D9, 52H5D3B8, 163E7D12, 172B4E9, 152E9F7 and 171F9C5) with comparison to a known GPC3 antibody GC33 (Chugai Pharmaceutical) on human GPC3 over-expressed CHOK1 cells.
Briefly, GPC3-CHOK1 cells were washed by FACS buffer and divided to each well with 3-fold serially diluted chimeric mAbs or GC33 mAb starting at 5 μg/mL at 4° C. for 40 mins. […] Samples were washed twice with FACS buffer.

B1: 52H5D3B8-18#-VH2+VL3 (antibody, V domains shown)
VH: QVQLVQSGAEVKKPGASVKVSCKASGYTFTRYEMHWVRQAPGQGLEWIGAIHPGSGGTAYNSKFKGRVTMTADTSTSTVYMELSSLRSEDTAVYYCTRYYSYAYWGQGTLVTVSS
VL: DIVMTQTPLSLSVTPGQPASISCRSSQSLVHSNGNTYLQWYLQKPGQSPKLLIYKVSNRYSGVPDRFSGSGSGTDFTLKISRVEAEDVGVYYCVESIHVPYTFGGGTKLEIK
EC50 of ADCC signaling (Jurkat-hCD16a-NFAT luciferase reporter), HEPG2 cells [1]: 0.202 nM
EC50 of ADCC signaling (Jurkat-hCD16a-NFAT luciferase reporter), Huh-7 cells [1]: 0.48 nM
EC50 [2]: 0.177 nM
EC50 of ADCC cytotoxicity (primary NK cells, LDH), HEPG2 cells [3]: 0.149 nM
EC50 of ADCC cytotoxicity (primary NK cells, LDH), Huh-7 cells [3]: 0.0826 nM

B5: 52H5D3B8-19#-VH2+VL3 (antibody, V domains shown)
VH: B1 VH with R31G, S62Q
VL: B1 VL with Y60F, S61A
EC50 of ADCC signaling (Jurkat-hCD16a-NFAT luciferase reporter), HEPG2 cells [1]: 0.0844 nM
EC50 of ADCC signaling (Jurkat-hCD16a-NFAT luciferase reporter), Huh-7 cells [1]: 0.266 nM
EC50 [2]: 0.207 nM
EC50 of ADCC cytotoxicity (primary NK cells, LDH), HEPG2 cells [3]: 0.0852 nM
EC50 of ADCC cytotoxicity (primary NK cells, LDH), Huh-7 cells [3]: 0.0328 nM

B7: 52H5D3B8-20#-VH2+VL3 (antibody, V domains shown)
VH: B1 VH with T28R, R31D, S62Q, K63L
VL: B1 VL with Y60F, S61P
EC50 of ADCC signaling (Jurkat-hCD16a-NFAT luciferase reporter), HEPG2 cells [1]: 0.0571 nM
EC50 of ADCC signaling (Jurkat-hCD16a-NFAT luciferase reporter), Huh-7 cells [1]: 0.124 nM
EC50 [2]: 0.207 nM
EC50 of ADCC cytotoxicity (primary NK cells, LDH), HEPG2 cells [3]: 0.121 nM
EC50 of ADCC cytotoxicity (primary NK cells, LDH), Huh-7 cells [3]: 0.0287 nM

B9: Y035 (Carsgen Therapeutics, US20190046659) (antibody, from another filing, V domains shown)
VH: EVQLVQSGAEVKKPGASVKVSCKASGYTFSDYEMHWVRQAPGQGLEWMGAIHPGSGDTAYNQRFKGRVTITADKSTSTAYMELSSLRSEDTAVYYCARFYSYAYWGQGTLVTVSA
VL: DIVMTQTPLSLPVTPGEPASISCRSSQSLVHSNGNTYLQWYLQKPGQSPQLLIYKVSNRFSGVPDRFSGSGSGTDFTLKISRVEAEDVGVYYCSQSIYVPYTFGQGTKLEIKR
EC50 [13]: 1.25 nM
EC50 [14]: 1.42 nM
EC50 [15]: 1.59 nM
EC50 [16]: 1.18 nM
internalization activity to HEPG2 cells, EC50 (pHAb dye fluorescence) [17]: 1.08 µg/mL
internalization activity to HEPG2 cells, Top (pHAb dye fluorescence) [17]: 52000
EC50 [18]: 1.46 nM

B10: Y035 CDRs with Hu 52H5D3B8-7 FRs (antibody, V domains shown)
VH: B9 VH with S30T, I70M, T76I, S85R, E89D, A97T, A115S
VL: B1 VL with I2V, K50Q, Y60F, V94S, E95Q, H98Y, L109V
EC50 [7]: 0.667 nM
EC50 [8]: 1.05 nM
internalization activity to HEPG2 cells, EC50 (pHAb dye fluorescence) [9]: 1.11 µg/mL
EC50 [11]: 0.985 nM

B12: 172B4E9 chimeric mAb (antibody, V domains shown)
VH: QVQLQQSGAELVRPGASVTLSCKASGYTFTDYEIHWVKQTPVHGLEWIGAIDPATGDTAYTQKFKGKAILTADTSSNTVYMELRGLTSEDSAVHFCTRFYSYAYWGQGTLVTVSA
VL: DVVMTQTPLSLPVSLGDQASISCRSSQSLVHTNGHTYLQWYLQKSGQSPRLLIFKVSNRFSGVPDRFSGSGSGTDFKLKISRVEAEDLGVYFCSQSTHVPYTFGGGTKLEIK
EC50 [19]: 0.269 µg/mL

B13: 152E9F7 chimeric mAb (antibody, V domains shown)
VH: B12 VH with A54E, T74K, G85S, H94Y, F95Y
VL: B12 VL with R50K, F54Y, K77T
EC50 [19]: 0.14 µg/mL

B14: 18C1D9 chimeric mAb (antibody, V domains shown)
VH: QVQLQQSGAELVRPGASVTLSCKASGYTFSDYEMHWVKQTPVHGLEWIGAIDPETGGTAYNQKFKGKATLTADKSSSTAYMELRSLTSEDSAVYYCTRYYSYAYWGQGTLVTVSA
VL: DVVMTQSPLSLPVSLGDQASISCRSRQSLVHSNGNTYLQWYLQKPGQSPKLLIYKVSNRFSGVPDRFSGSGSGTDFTLKISRVEAEDLGVYFCFQSIHVPYTFGGGTKLEKK
EC50 [19]: 0.238 µg/mL

B16: 163E7D12 chimeric mAb (antibody, V domains shown)
VH: B14 VH with S30T, D52G, G57S, K63R, T69I, L70V, Y102F
VL: B14 VL with S7T, D17G, R26S, Y54F, K111I
EC50 [19]: 0.17 µg/mL

Now from value to binder:

EC50 [4]: 0.0294 µg/mL
EC50 [5]: 0.0384 µg/mL
Kd [6]: 3.22 nM
koff [6]: 0.001 s⁻¹
kon [6]: 310000 M⁻¹ s⁻¹
B2: Hu 52H5D3B8-12 (antibody, V domains shown)
VH: EVQLVQSGAEVKKPGASVKVSCKASGYTFTDYEMHWVRQAPGQGLEWIGAIHPGSGGTAYNQKFKGKATLTADKSISTAYMELSRLRSDDTAVYYCTRFYSYAYWGQGTLVTVSS
VL: B1 VL with I2V, K50Q, Y60F, Y92F, V94S, E95Q, L109V
notes: humanized 52H5D3B8; also called 52H5D3B8 VH5 + VL1

EC50 [4]: 0.0288 µg/mL
EC50 [5]: 0.04 µg/mL
Kd [6]: 3.06 nM
koff [6]: 0.000905 s⁻¹
kon [6]: 295000 M⁻¹ s⁻¹
B3: Hu 52H5D3B8-11 (antibody, V domains shown)
VH: B2 VH
VL: B1 VL with I2V, K50Q, Y60F, V94S, E95Q, L109V
notes: humanized 52H5D3B8; also called 52H5D3B8 VH5 + VL0

EC50 [4]: 0.0323 µg/mL
EC50 [5]: 0.0389 µg/mL
Kd [6]: 3.89 nM
koff [6]: 0.00104 s⁻¹
kon [6]: 267000 M⁻¹ s⁻¹
B4: Hu 52H5D3B8-10 (antibody, V domains shown)
VH: B2 VH with K67R, A68V
VL: B1 VL with I2V, K50Q, Y60F, Y92F, V94S, E95Q, L109V
notes: humanized 52H5D3B8; also called 52H5D3B8 VH4 + VL1

EC50 [7]: 0.418 nM
EC50 [8]: 0.693 nM
internalization activity to HEPG2 cells, EC50 (pHAb dye fluorescence) [9]: 0.78 µg/mL
EC50 [10]: 0.0432 µg/mL
EC50 [11]: 0.434 nM
EC50 [12]: 0.0233 µg/mL
Kd [6]: 3.31 nM
koff [6]: 0.0011 s⁻¹
kon [6]: 332000 M⁻¹ s⁻¹
B6: Hu 52H5D3B8-8 (antibody, V domains shown)
VH: B2 VH with I48M, K67R, A68V, L70M
VL: B1 VL with I2V, K50Q, Y60F, Y92F, V94S, E95Q, L109V
notes: humanized 52H5D3B8; also called 52H5D3B8 VH3 + VL1

EC50 [7]: 0.464 nM
EC50 [8]: 0.757 nM
internalization activity to HEPG2 cells, EC50 (pHAb dye fluorescence) [9]: 0.72 µg/mL
EC50 [10]: 0.0447 µg/mL
EC50 [11]: 0.467 nM
EC50 [12]: 0.0242 µg/mL
Kd [6]: 3.23 nM
koff [6]: 0.00103 s⁻¹
kon [6]: 320000 M⁻¹ s⁻¹
B8: Hu 52H5D3B8-7 (antibody, V domains shown)
VH: B2 VH with I48M, K67R, A68V, L70M
VL: B1 VL with I2V, K50Q, Y60F, V94S, E95Q, L109V
notes: humanized 52H5D3B8; also called 52H5D3B8 VH3 + VL0

EC50 [7]: 0.782 nM
EC50 [8]: 1.16 nM
internalization activity to HEPG2 cells, EC50 (pHAb dye fluorescence) [9]: 1.14 µg/mL
EC50 [11]: 0.798 nM
B11: Hu 52H5D3B8-7/8 CDRs with Y035 FRs (antibody, V domains shown)
VH: B9 VH with F29H, D57G, R63K
VL: B9 VL with Y98H

EC50 [19]: 0.142 µg/mL
B15: 171F9C5 chimeric mAb (antibody, V domains shown)
VH: B14 VH with S30T, M34I, G56D, G57N, N61S, T69I
VL: B12 VL with L29P, T32R, H35N, Q39H, S45P, R50K, K77T, E84A, S96T
